# Results reported in a protein production outcome set (Wang et al. 2014).
# Assay: label from the status in PepcDB records
row,Sequence,protein production
1,MPRSTWFKALLLLVALWAPLSQAETGWQPIQETIRKSDKDNRQYQAIRLDNGMVVLLVSDPQAVKSLSALVVPVGSLEDPEAYQGLAHYLEHMSLMGSKKYPQADSLAEYLKMHGGSHNASXAPYRTAFYLEVENDALPGAVDRLADAIAEPLLDKKYAERERNAVNAELTMARTRDGMRMAQVSAETINPAHPGSKFSGGNLETLSDKPGNPVQQALKDFHEKYYSANLMKAVIYSNKPLPELAKMAADTFGRVPNKESKKPEITVPVVTDAQKGIIIHYVPALPRKVLRVEFRIDNNSAKFRSKTDELITYLIGNRSPGTLSDWLQKQGLVEGISANSDPIVNGNSGVLAISASLTDKGLANRDQVVAAIFSYLNLLREKGIDKQYFDELANVLDIDFRYPSITRDMDYVEWLADTMIRVPVEHTLDAVNIADRYDAKAVKERLAMMTPQNARIWYISPKEPHNKTAYFVDAPYQVDKISEQTFADWQQKAANIALSLPELNPYIPDDFSLIKSEKKYDHPELIVDESNLRVVYAPSRYFSSEPKADVSLILRNPKAMDSARNQVMFALNDYLAGLALDQLSNQASVGGISFSTNANNGLMVNANGYTQRLPQLFQALLEGYFSYTATEDQLEQAKSWYNQMMDSAEKGKAFEQAIMPAQMLSQVPYFSRDERRKILPSITLKEVLAYRDALKSGARPEFMVIGNMTEAQATTLARDVQKQLGADGSEWCRNKDVVVDKKQSVIFEKAGNSTDSALAAVFVPTGYDEYTSSAYSSLLGQIVQPWFYNQLRTEEQLGYAVFAFPMSVGRQWGMGFLLQSNDKQPSFLWERYKAFFPTAEAKLRAMKPDEFAQIQQAVITQMLQAPQTLGEEALKLSKDFDRGNMRFDSRDKIVAQIKLLTPQKLADFFHQAVVEPQGMAILSQISGSQNGKAEYVHPEGWKVWENVSALQQTMPLMSEKNE,failed
2,MPSDSQNNKRIAQNTLLLYFRMLFLMLVSLYTSRVNLNALGIEDFGIYNVVGGLVAMFSIISGSLVSSISRFITFELGTENKEKLKKVFSTAVSIQFFLVIIVVILAETIGLWFLNNKMVIPEERILAANIIYQFSIISFALSLMSIPYTGTIVAHEKMSAFAYISIFDVIGKLAVALTISIAPIDKLIWFAGFIVFNSTIIQSIYIFYCKRHFEECTYHFIFDKSLLKNMFGFAGWNFIGSIAAILRDQGGNIVINMFCGPAVNAARGVAMQVNNAVSGFVSNFQTALNPQITKSYASGNYDYMMQLIFQGARLSYYILLILALPIISNTHFILQLWLGQVPKHTVLFVQLVLFFTMSESLANPLINAMLATGKIKKFQIIVGGLNLVNLPLSYICLRLGCIPESVVIIAIIISMICEMARVIMLRNMIHFPARSFLKKVYFNVIFVTITASILPLYLHFILEENIYTFTLISVVSFSCTLLSILYIGCSSEERVMVFSKVKVIVNKVSKRYK,failed
3,MPSEAKYTWDQELNEINIQFPVTGDADSSAIKIRIVGKKICVKNQGEIVIDGELLHEVDVSSLWWVINGDVVDVNVTKKRNEWWDSLLVGSESVDVQKLAENKHADMSMLDAEAREVVEKMMHNTSGKDSE,not failed
4,MPSLTPRCIIVRHGQTEWSKSGQYTGLTDLPLTPYGEGQMLRTGESVFRNNQFLNPDNITYIFTSPRLRARQTVDLVLKPLSDEQRAKIRVVVDDDLREWEYGDYEGMLTREIIELRKSRGLDKERPWNIWRDGCENGETTQQIGLRLSRAIARIQNLHRKHQSEGRASDIMVFAHGHALRYFAAIWFGLGVQKKCETIEEIQNVKSYDDDTVPYVKLESYRHLVDNPCFLLDAGGIGVLSYAHHNIDEPALELAGPFVSPPEEESQHGDV,not failed
5,MPSQSFNAFCPDWATALLNGFSQIFLQRHPLCGLLCLLAILVSAPALLGAALLGALAGLLTAQRRWYAKADRQAGLFSYNGVLLGLLLGLYLPWSVLLPPLIIAAGGLSAIITQQWLKRARNPASLPAYTAPFVGLGWLLLSLIEPLPAATQGVPGLSLANLLGGLFQGLGQIMFLGQPLAGLLILLGLLLASRRAAAWALFGSACGLLFALLLQEHAQALQGLGGYNCALVALALGQQARHPWRPLLGMLLALLISPGLVALGLAPLTAPFVLACWLVHTVDRVLGRNVRGDAPCAPPANPPRLR,failed
6,MPSSRRVRSRCCAFGITKRFACIRPACQRARMDAQMTNFETRLRENAAKTEALLGHLLSGEARADEITRPQNLLEAMRHGVLNGGKRLRPFLVIESVALLGGDAEAGLHVGAALECLHCYSLVHDDLPAMDDDDLRRGQPTVHRKFDEATAILAGDSLLTLAFDIIASDDNPLAAERKAALVISLARAAGIGGMAGGQALDLAAEKKAPDEDGIITLQAMKTGALLRFACEAGAIIAGSNQAERQRLRLFGEKIGLSFQLADDLLDLTADAATMGKATGKDAARGKGTLVALRGEAWAREKLQE,not failed
7,MPSSSNSAAFSLDEFAKALDKHDYHAEKGQTVHGKICQHANEGVYVDFGGKSPGFVPVQELGLRPHAEIEDSFPLDSAWDFLVTSEQNDEGQVRLSRRQLQIQQSWENLAELEESGKTLEMVVTGTNKGGVVGDVEGLRGFIPRSHLMHKDNMDALVGQVLKAHILEANQDNNKLVLTQRRIQQAESMGKIAAGNIYEGKVAKIQPYGVFVEIEGVTGLLHVSQVSGTRVDSLNTLFAFGQAISVYVQEIDEYKNRISLSTRILETYPGELVEKFDEMMADAPNRLPLVQSKQNLGDKQEQLEKSLEHHHHHH,failed
8,MPSSTFSGTVSTPKLSVAVDMGNPFLNLTVDAFLKIGAVGVTKSLAEDTYKAIDKGSLSKSTLEHALKKLCKEGVYWGAAGGVYIGTEYGIERIRGSRDWKNAMLAGAATGAVLSAVGKKGKDTIVIDAILGGALATASQFVNNHYFY,failed
9,MPTDDIVQLLKGQEEAWNRGDLDAYMQGYWQNEQLMLISNGKFRNGWDETLAAYKKNYPDKESLGELKFTIKEIKMLSNYAAMVVGRWDLKRLKDTPTGVFTLLVEKIDDRWVITMDHSSD,not failed
10,MPTFHEIDVLRHNSASWDAQAARDCEWSRPVSAEEVAAARRGDWAVKLTPGALPAHWLGDVRGREILCLASAGGQQAPILAAAGARVTLFDASAGQLDKDRQVAARDRLELACVQGDMRDLSTFADASFDLVFNPISNLYVDDVLPVWRECARVLRPGGKLLASFYNPALFIEDRSPELAEQGLIRPRHRLPYSDLESLSAEALAAKREKGEALVFGHSLTQQIAGQLAAGLLLQDFYEDWQPHPRFVIDRFVPTFLATCALKPRSAAG,failed
11,MPTISTSVCVNYTQDQMYELVNDVADYPKYLPLCRDVRVLSAADRHIKATITLAKGAVRLNFTTANTMEPGRHIHMKLVDGPFKYLRGNWRFDANPHGGCDVSFRVDFEFANPLLQMALGGIFREVMESLVAAFCNQAAKRYGNAGPALPPGQAQDGVGRSGSV,failed
12,MPTKKADIYTLAKFGDLGAFKESFKIENINDKSESGSGLLHYAISGLKFDIAMFLIENGIDVNITNEVGQTALHYICNYPNIDVAKCILKHGGDINIRDKYYNNALWTAVFNCKGRYYDMVELFMEYSPDVETKNNAGRSPLDFAIQVGNEKLIKMLRKKE,failed
13,MPTLEMPVAAVLDSTVGSSEALPDFTSDRYKDAYSRINAIVIEGEQEAHDNYIAIGTLLPDHVEELKRLAKMEMRHKKGFTACGKNLGVEADMDFAREFFAPLRDNFQTALGQGKTPTCLLIQALLIEAFAISAYHTYIPVSDPFARKITEGVVKDEYTHLNYGEAWLKANLESCREELLEANRENLPLIRRMLDQVAGDAAVLQMDKEDLIEDFLIAYQESLTEIGFNTREITRMAAAALVS,not failed
14,MPTLKVAYIPEHFSTPLFFAQQQGYYKAHDLSIEFVKVPEGSGRLINLLNSNEVDIAIGLTEAFIADIAKGNENIHVLDTYVKSPLLWAVSTGSNRDDVTDAKQLKRIGVSRIGSGSYVMSFVLAHQLGVPSFDQFQVLSNFKNLRDSVNLKDGVEGSDAFMWEYFTSKKYYDNHEIKQIDQIYTPWSSWVVATSSDSLQAKSDVIKNFIDAVNQGIQYYNEHVDEAIEYISSNLDYSAEDAKEWTKTVEFNSRIGKTPLDWDTIVVKTKDTLKLAGVLAESDDVILKRLNSNVKKTNL,not failed
15,MPTNQDLQLAAHLRSQVTTLTRRLRREAQADPVQFSQLVVLGAIDRLGGDVTPSELAAAERMRSSNLAALLRELERGGLIVRHADPQDGRRTRVSLSSEGRRNLYGNRAKREEWLVRAMHACLDESERALLAAAGPLLTRLAQFEEP,not failed
16,MPTPIHVLPPHVARLIAAGEVVSRPLDVVRELVENALDAGASRIEIEVDGGGLERVQVRDNGSGIAAQSVPLAPARHATSKLTAGPETGSLSVTTLGFRGEALWAAAQAGELELTTRPAAQVGAARLRAQGDAVEVSRTSAPAGTTVTVSQLFARLPARLRTQASAAAEVRDITALLGRYVLHHSALHWRLTVDGDPRLTHAPADHRGAVATVYGPLSANRVLTLDTPGVRGVVSRPELTRARRDRMHFAVNGRPIVAPPELERAVIDAYAELLPAGTAPLCVLDLTVAPEDYDPNIHPAKQVVALADLPAVALRVRDAVAGALAGHPLVRAAPALIAPPEPHPAPTAGNFPDLTLLGVYQELYLLAQGEGDLWVVDAHAAHERALYERLGRELGTAAPLELPTPELLHLTPEQTARLHERGAELRGWGLTIEDFGAGLARLRTLPAALAALPVPRLHEVVVETALSGGPDPRREVLARLACLPALKAGMLDAERGALVLAALRECEQPWACPHGRPTVLRLSERDLAHAFGRRGVRDVARGRDSVV,failed
17,MPTVSVKWQKKVLDGIEIDVSLPPYVFKAQLYDLTGVPPERQKIMVKGGLLKDDGDWAAIGVKDGQKLMMMGTADEIVKAPEKAIVFAEDLPEEALATNLGYSAGLVNLGNTCYMNSTVQCLKSVPELKSALSNYSLAARSNDVDQTSHMLTVATRELFGELDRSVLRKKYPQFSQLQNGMHMQQDAEECWTQLLYTLSQSLKAPTSSEGADAVKALFGVNLQSRIKLGVLDNVTDSTVISKCTLHCQESGEESSETESVYSLKCHISHEVNHLHEGLKHGLKGELEKTSPALGRTALYVKESLIDSLPRYLTVQFVRFFWKRESNQKAKILRKVDYPLVLDIFDLCSEDLRKKLEAPRQKLREEEGKKLGLQTSAKSGSKDSDVKMTDAEASANGSGESSTVNPQEGTSSEKETHMTGIYDLVAVLTHKGRSADSGHYVAWVKQESGKWIQYDDDNPSMQREEDITKLSGGGDWHMAYITMYKARFVSM,failed
18,MPTYEELSQAVFEGDEAQVVELTRSLLSGGAEPLEVINKGLIAGMDRVGVLFKNNEMFVPEVLMSANAMNAGVEVVKQSQQAFDMPSVGKIVLGTVKGDLHDIGKNLVAMMLESGGFTVYNLGVDIEPGKFVEAVKKYQPDIVGMSALLTTTMMNMKSTIDALIAAGLRDRVKVIVGGAPLSQDFADEIGADGYAPDAASATELCRQLLE,not failed
19,MPVCARAAAATGAAGHRSHLPEVTFCLRTIAERLHGGQHRRMNSSFCHLLHPLRLAAAFTIAAVALSFMPDASAHGAWRWGALAGFTALFVLHTVLPQTHALRTVATLLQAVLALLLVWIEPRAGTAPVLLVMLVAQAGMTWPPLRVLLLALALNAGMYAVLVHAGFDRALLIVSIYAGFQAFAALTAHYARSAERARDALAYVNADLLATRALLADSARDAERLRLARELHDVAGHKLTAMRINLRLLSADPALAQRDEVAVVEQLSAELLSDIRNVVQSLRDDQGLDLQTALRALAAPFPRPTLRLQIDADVRVTDARVAELLLRLVQEALTNAVRHADADEVAVHLHCEGAQLHVDICDDGRRAERIREGNGITGMRERLAALHGQLDLGRTPTGGMHLIARLPV,failed
20,MPVGIIGHYRCGEHNMGEHHPENGKRLTAISDQLIRSGLDYVVRQFDSKPIDKSLLALAHTQEHIDFVFDNAPNEGEENFTVGEDSVMNEKTLTSIMYSAGAAVDAVDLVMEGTLGAAFCATRPPGHHAEHDKGMGFCFFNNVAVAAAYAKQKYGLKRVAIVDFDVHHGNGTEDIITNHFNATPEDDKGYLFCSSYQYPLYPFEIQESDTPPIINTPLAATTKGEQFREKLTAHWLPALHKFKPELILISAGFDAHIEDEMSHVSLTEADYRWITDELKIIAEEYGKGRIVSVLEGGYAPSALGRSVVAHVNGLIGN,failed
